Source: patent US20120093830A1 (published 2012)
Numbering of substitutions follows the chain as printed. “And” between values parts separate entries of the source, which are not always exact repeats. Equal entries are not always repeated.

How the values were obtained:
[1] = biological target: T1, human IL-13 (human, UniProt P35225 35-146); test: cell-based or functional assay
[2] = biological target: cynomolgus IL-13 (cynomolgus, UniProt Q0PW92 21-132); test: cell-based or functional assay
[3] = biological target: T1, human IL-13; test: IL-13 sandwich ELISA (IL-13 binding to the capture antibody inhibited); block 4; sample #16 (2.6 mg/mL in PBS), aerosolised material after E-flow vibrating mesh nebuliser
Experimental: (§1) The plate was then incubated with TMB substrate (KPL, Gaithersburg, USA), and the reaction was stopped by the addition of HCl and the absorbance read at 450 nm.
(§2) Nebulisation was performed for approximately 3 minutes. 100 uL of protein samples (diluted to 1 mg/mL) were injected onto the SEC (TSKgel G2000SWXL, Tosoh Biosciences, Germany) column. The protein separation on SEC was performed at 0.5 mL/min for 45 minutes. PBS (phosphate buffered saline)+10% EtOH was used as mobile phase. The detection of eluting proteinaceous material was carried by on-line detection by UV (Abs 280 nm & 215 nm). […] The optimum MMAD is 3 μm and for deep lung delivery the desirable respirable fraction is the highest percentage of particles <5 μm. The LC+ (Pari) Jet nebuliser gives the better MMAD: MMAD values are lower when the buffer contains PEG; MMAD decreases as protein concentration increases.

[4] = biological target: T1, human IL-13; test: IL-13 sandwich ELISA: dAb dilution series mixed with IL-13, binding of IL-13 to the coating (capture) antibody detected; block 4 of the table, sample not nebulised
Experimental: as §1, §2

[5] = biological target: T1, human IL-13; test: IL-13 sandwich ELISA: dAb dilution series mixed with IL-13, binding of IL-13 to the coating (capture) antibody detected; block 2 of the table, sample not nebulised
Experimental: as §1, §2

[6] = biological target: T1, human IL-13; test: IL-13 sandwich ELISA (IL-13 binding to the capture antibody inhibited); block 4; sample #16 (2.6 mg/mL in PBS), material remaining in the cup after LC+ jet nebuliser
Experimental: as §1, §2

[7] = biological target: T1, human IL-13; test: IL-13 sandwich ELISA (IL-13 binding to the capture antibody inhibited); block 4; sample #16 (2.6 mg/mL in PBS), aerosolised material after LC+ jet nebuliser
Experimental: as §1, §2

[8] = biological target: T1, human IL-13; test: IL-13 sandwich ELISA (IL-13 binding to the capture antibody inhibited); block 1; sample #14 (2.3 mg/ml, 25 mM sodium phosphate pH 7.5, 7% PEG1000, 1.2% sucrose), aerosolised material after E-flow vibrating mesh nebuliser
Experimental: as §1, §2

[9] = biological target: T1, human IL-13; test: IL-13 sandwich ELISA (IL-13 binding to the capture antibody inhibited); block 2; sample #15 (4.7 mg/mL, 25 mM sodium phosphate pH 7.5, 7% PEG1000, 1.2% sucrose), aerosolised material after E-flow vibrating mesh nebuliser
Experimental: as §1, §2

[10] = biological target: T1, human IL-13; test: IL-13 sandwich ELISA (IL-13 binding to the capture antibody inhibited); block 1; sample #14 (2.3 mg/ml, 25 mM sodium phosphate pH 7.5, 7% PEG1000, 1.2% sucrose), material remaining in the cup after LC+ jet nebuliser
Experimental: as §1, §2

[11] = biological target: T1, human IL-13; test: IL-13 sandwich ELISA (IL-13 binding to the capture antibody inhibited); block 3; sample #16 (2.6 mg/mL in PBS), material remaining in the cup after E-flow vibrating mesh nebuliser
Experimental: as §1, §2

[12] = biological target: T1, human IL-13; test: IL-13 sandwich ELISA (IL-13 binding to the capture antibody inhibited); block 3; sample #15 (4.7 mg/mL, 25 mM sodium phosphate pH 7.5, 7% PEG1000, 1.2% sucrose), aerosolised material after LC+ jet nebuliser
Experimental: as §1, §2

[13] = biological target: T1, human IL-13; test: IL-13 sandwich ELISA (IL-13 binding to the capture antibody inhibited); block 2; sample #14 (2.3 mg/ml, 25 mM sodium phosphate pH 7.5, 7% PEG1000, 1.2% sucrose), aerosolised material after LC+ jet nebuliser
Experimental: as §1, §2

[14] = biological target: T1, human IL-13; test: IL-13 sandwich ELISA: dAb dilution series mixed with IL-13, binding of IL-13 to the coating (capture) antibody detected; block 3 of the table, sample not nebulised
Experimental: as §1, §2

[15] = biological target: T1, human IL-13; test: IL-13 sandwich ELISA (IL-13 binding to the capture antibody inhibited); block 3; sample #15 (4.7 mg/mL, 25 mM sodium phosphate pH 7.5, 7% PEG1000, 1.2% sucrose), material remaining in the cup after LC+ jet nebuliser
Experimental: as §1, §2

[16] = biological target: T1, human IL-13; test: IL-13 sandwich ELISA (IL-13 binding to the capture antibody inhibited); block 2; sample #15 (4.7 mg/mL, 25 mM sodium phosphate pH 7.5, 7% PEG1000, 1.2% sucrose), material remaining in the cup after E-flow vibrating mesh nebuliser
Experimental: as §1, §2

[17] = biological target: T1, human IL-13; test: IL-13 sandwich ELISA: dAb dilution series mixed with IL-13, binding of IL-13 to the coating (capture) antibody detected; block 1 of the table, sample not nebulised
Experimental: as §1, §2

[18] = biological target: T1, human IL-13; test: IL-13 sandwich ELISA: dAb dilution series mixed with IL-13, binding of IL-13 to the coating (capture) antibody detected; block 4 of the table, standard
[19] = biological target: T1, human IL-13; test: IL-13 sandwich ELISA: dAb dilution series mixed with IL-13, binding of IL-13 to the coating (capture) antibody detected; block 1 of the table, standard
[20] = biological target: T1, human IL-13; test: IL-13 sandwich ELISA: dAb dilution series mixed with IL-13, binding of IL-13 to the coating (capture) antibody detected; block 2 of the table, standard
[21] = biological target: T1, human IL-13; test: IL-13 sandwich ELISA: dAb dilution series mixed with IL-13, binding of IL-13 to the coating (capture) antibody detected; block 3 of the table, standard

Sequence of cynomolgus IL-13 (Q0PW92 entry or part of it): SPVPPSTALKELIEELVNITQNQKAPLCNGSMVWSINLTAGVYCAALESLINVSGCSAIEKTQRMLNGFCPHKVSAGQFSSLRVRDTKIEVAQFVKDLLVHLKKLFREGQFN
T1 sequence (P35225 35-146 limits assumed): as the sequence (Q0PW92 entry or part of it) above, with S1G, K10R, V42M, N67S, R83H, V100L counted along it

B1: DOM10-275-78 (single domain antibody (dAb), V domains shown)
VH: EVQLLESGGGLVQPGGSLRLSCVASGFTFDVAEMDWVRQAPGKGLEWVSTISPSRRGTYYADSVKGRFTISRDNSKNTLYLQMNSLRAEDTAVYYCAKAYTGRSLWGPGTLVTVSS
- EC50, FIG. 1A: inhibition of human IL-13 (3 ng/ml) stimulated alkaline phosphatase production in HEK STAT6 cells [1]: 2.42 nM and 2.65 nM
- EC50, FIG. 1B: inhibition of cynomolgus IL-13 (3 ng/ml) stimulated alkaline phosphatase production in HEK STAT6 cells [2]: 1.37 nM

B2: DOM10-53-474 (single domain antibody (dAb), V domains shown)
VH: GVQLLESGGGLVQPGGSLRLSCAASGFTFAWYDMGWVRQAPGKGLEWVSSIDWHGEVTYYADSVKGRFTISRDNSKNTLYLQMNSLRAEDTAVYYCATAEDEPGYDYWGQGTLVTVSS
notes: Soluble anti-IL-13 domain antibody monomer (immunoglobulin single variable domain); also called anti-IL-13 dAb
- IC50 [3]: 0.0351 nM
- IC50 [4]: 0.0269 nM
- IC50 [5]: 0.0356 nM
- IC50 [6]: 0.0339 nM
- IC50 [7]: 0.023 nM
- IC50 [8]: 0.0322 nM
- IC50 [9]: 0.0185 nM
- IC50 [10]: 0.0317 nM
- EC50, FIG. 1A: inhibition of human IL-13 (3 ng/ml) stimulated alkaline phosphatase production in HEK STAT6 cells [1]: 0.72 nM
- EC50, FIG. 1B: inhibition of cynomolgus IL-13 (3 ng/ml) stimulated alkaline phosphatase production in HEK STAT6 cells [2]: 10.8 nM
- IC50 [11]: 0.0224 nM
- IC50 [12]: 0.0149 nM
- IC50 [13]: 0.0348 nM
- IC50 [14]: 0.0289 nM
- IC50 [15]: 0.0129 nM
- IC50 [16]: 0.0214 nM
- IC50 [17]: 0.0458 nM

B3: DOM10-53-344 (Std) (single domain antibody (dAb), V domains shown)
VH: B2 VH with T28I
- IC50 [18]: 0.0671 nM
- IC50 [19]: 0.0716 nM
- IC50 [20]: 0.125 nM
- IC50 [21]: 0.0455 nM
